Experimental data from patent US9879306B2, “Luciferase biosensors for cAMP” (PROMEGA CORPORATION, priority 2008, dated 2018).

Key:
[1] = test system: cyclic AMP dependent protein kinase catalytic subunit; details: serine at position 543; alkaline phosphatase restored activity; cited from earlier work
[2] = test system: catalytic subunit of protein kinase A; details: reversed by phosphatase; cited from earlier work
[3] = molecular target: T1, endogenous beta2-adrenergic receptor (Homo sapiens, UniProt P07550); experiment: Stimulatory response to isoproterenol in HEK293 cells (Gs pathway); format: cell-based; details: 10 μM isoproterenol, relative to biosensor with GSSGGSGGSGGG linker
T1 construct: agonist of the endogenous beta2-adrenergic receptor; endogenous in cells; host or cells: HEK293
Excerpt: (§1) A mutant cAMP biosensor (termed L9; SEQ ID NO: 104; SEQ ID NO: 105) having a mutant RIIβB binding site (substitutions E284A and V316I) and a modified linker sequence (GSIAGCGDAGEG, SEQ ID NO: 57; SEQ ID NO: 128) was screened for increased light output and increased fold response when expressed in mammalian cells (primary sequence Met-(Photinus pyralis luciferase residues 359-544)-(GSIAGCGDAGEG (SEQ ID NO: 57; SEQ ID NO: SEQ ID NO: 128))-(RIIβB E284A, V316I)-(Photinus pyralis luciferase residues 4-355)-Val). For a stimulatory response, transient expression in HEK293 cells was followed by treatment with 10 μM isoproterenol (agonist of the endogenous beta2-adrenergic receptor). For an inhibitory response, transient expression in HEK293 cells that stably express the dopamine D2 receptor was followed by simultaneous treatment with dopamine in the presence or absence of forskolin

dopamine D2 receptor = molecular target: T2, dopamine D2 receptor (Homo sapiens, UniProt P14416); experiment: Inhibitory response to dopamine with or without forskolin in HEK293 cells stably expressing D2 (Gi pathway); format: cell-based; details: relative to biosensor with GSSGGSGGSGGG linker
T2 construct: expressed in transfected cells
T2 sequence (P14416 whole entry, species assumed): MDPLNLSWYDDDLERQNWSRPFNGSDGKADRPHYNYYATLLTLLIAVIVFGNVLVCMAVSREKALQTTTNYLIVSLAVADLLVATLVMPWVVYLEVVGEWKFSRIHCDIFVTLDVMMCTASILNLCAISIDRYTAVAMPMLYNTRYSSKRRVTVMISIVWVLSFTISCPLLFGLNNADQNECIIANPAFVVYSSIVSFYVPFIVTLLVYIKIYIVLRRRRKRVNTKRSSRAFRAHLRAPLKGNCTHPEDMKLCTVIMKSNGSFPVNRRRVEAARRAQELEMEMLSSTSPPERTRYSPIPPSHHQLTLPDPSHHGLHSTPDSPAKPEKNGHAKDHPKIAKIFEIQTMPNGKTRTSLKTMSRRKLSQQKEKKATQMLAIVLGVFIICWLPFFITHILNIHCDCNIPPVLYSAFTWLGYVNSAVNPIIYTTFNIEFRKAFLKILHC
Excerpt: as §1

GPR41 [4] = molecular target: T3, GPR41 (Homo sapiens, UniProt O14843); experiment: Sodium proprionate CRC with biosensor variants in HEK293 cells stably expressing GPR41; format: cell-based
T3 sequence (O14843 1-346): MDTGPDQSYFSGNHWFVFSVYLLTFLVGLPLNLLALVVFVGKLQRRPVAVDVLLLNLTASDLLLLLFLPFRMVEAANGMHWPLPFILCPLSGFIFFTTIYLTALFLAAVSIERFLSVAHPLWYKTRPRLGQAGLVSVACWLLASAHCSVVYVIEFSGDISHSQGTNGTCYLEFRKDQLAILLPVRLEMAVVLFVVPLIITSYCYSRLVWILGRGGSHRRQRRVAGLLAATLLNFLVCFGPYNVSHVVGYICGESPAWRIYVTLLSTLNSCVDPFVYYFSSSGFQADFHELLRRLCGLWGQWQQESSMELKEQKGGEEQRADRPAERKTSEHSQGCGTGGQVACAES
Method in brief: (§2)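 Luminescent cAMP readout: EC50 and fold response from a sodium propionate concentration-response, tested ± FSK. Luminescence was read before compound and 30 min after. Cells were HEK293 stably expressing GPR41, carrying a transiently transfected cAMP biosensor variant and preloaded 2 h at room temperature with 5 mM EF-luc in CO2-independent medium plus 10% FBS.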

GPR41 [5] = experiment: as above; format: cell-based; details: ratio of RLU of FSK treated well to untreated well
Method in brief: as §2

Molecule: LRRASLG
- reduction of activity on addition of kinase catalytic subunit [1]: 30%

Molecule: RRFS: Photinus pyralis luciferase with valine 217 mutated to arginine to generate the site RRFS (Sala-Newby et al.)
- decrease of activity when phosphorylated [2]: up to 80%

B1: L9: cAMP biosensor, RIIβB E284A and V316I, linker GSIAGCGDAGEG; SEQ ID NO:104, 105 (protein)
chain: MPGAVGKVVPFFEAKVVDLDTGKTLGVNQRGELCVRGPMIMSGYVNNPEATNALIDKDGWLHSGDIAYWDEDEHFFIVDRLKSLIKYKGYQVAPAELESILLQHPNIFDAGVAGLPDDDAGELPAAVVVLEHGKTMTEKEIVDYVASQVTTAKKLRGGVVFVDEVPKGLTGKLDARKIREILIKAKKGSIAGCGDAGEGMYESFIESLPFLKSLEFSARLKVVDVIGTKVYNDGEQIIAQGDSADSFFIIESGEVKITMKRKGKSEVEENGAVEIARCSRGQYFGELALVTNKPRAASAHAIGTVKCLAMDVQAFERLLGPCMEIMKRNIATYEEQLVALFGTNMDIVAKNIKKGPAPFYPLEDGTAGEQLHKAMKRYALVPGTIAFTDAHIEVDITYAEYFEMSVRLAEAMKRYGLNTNHRIVVCSENSLQFFMPVLGALFIGVAVAPANDIYNERELLNSMGISQPTVVFVSKKGLQKILNVQKKLPIIQKIIIMDSKTDYQGFQSMYTFVTSHLPPGFNEYDFVPESFDRDKTIALIMNSSGSTGLPKGVALPHRTACVRFSHARDPIFGNQIIPDTAILSVVPFHHGFGMFTTLGYLICGFRVVLMYRFEEELFLRSLQDYKIQSALLVPTLFSFFAKSTLIDKYDLSNLHEIASGGAPLSKEVGEAVAKRFHLPGIRQGYGLTETTSAILITPEGV
- fold response to isoproterenol induction of the Gs pathway [3]: improved fold response
- fold response for the Gi pathway (dopamine D2 receptor): improved fold response
- Fold Response Na proprionate + FSK(1 μM) (GPR41 [4]; with FSK 1 μM): 2.60 fold
- Fold Response Na proprionate (GPR41 [4]; without FSK, ratio of induced to uninduced signal): 2.73 fold
- Fold Signal Change (GPR41 [5]): 40.9 fold
